Reference: publication PMC9957003, “Functional Analyses of Rare Germline Missense BRCA1 Variants Located within and outside Protein Domains with Known Functions” (Genes, 2023)

Target: T1, BARD1-V5 WT (BRCA1-Associated RING Domain protein 1) (UniProt Q99728 1-777)
T1 construct: BARD1 (BRCA1-Associated RING Domain protein 1), wild type; also called pcDNA6.2-BARD1-V5; source: HEK293FT, transiently co-transfected, in lysate
T1 sequence (looked up): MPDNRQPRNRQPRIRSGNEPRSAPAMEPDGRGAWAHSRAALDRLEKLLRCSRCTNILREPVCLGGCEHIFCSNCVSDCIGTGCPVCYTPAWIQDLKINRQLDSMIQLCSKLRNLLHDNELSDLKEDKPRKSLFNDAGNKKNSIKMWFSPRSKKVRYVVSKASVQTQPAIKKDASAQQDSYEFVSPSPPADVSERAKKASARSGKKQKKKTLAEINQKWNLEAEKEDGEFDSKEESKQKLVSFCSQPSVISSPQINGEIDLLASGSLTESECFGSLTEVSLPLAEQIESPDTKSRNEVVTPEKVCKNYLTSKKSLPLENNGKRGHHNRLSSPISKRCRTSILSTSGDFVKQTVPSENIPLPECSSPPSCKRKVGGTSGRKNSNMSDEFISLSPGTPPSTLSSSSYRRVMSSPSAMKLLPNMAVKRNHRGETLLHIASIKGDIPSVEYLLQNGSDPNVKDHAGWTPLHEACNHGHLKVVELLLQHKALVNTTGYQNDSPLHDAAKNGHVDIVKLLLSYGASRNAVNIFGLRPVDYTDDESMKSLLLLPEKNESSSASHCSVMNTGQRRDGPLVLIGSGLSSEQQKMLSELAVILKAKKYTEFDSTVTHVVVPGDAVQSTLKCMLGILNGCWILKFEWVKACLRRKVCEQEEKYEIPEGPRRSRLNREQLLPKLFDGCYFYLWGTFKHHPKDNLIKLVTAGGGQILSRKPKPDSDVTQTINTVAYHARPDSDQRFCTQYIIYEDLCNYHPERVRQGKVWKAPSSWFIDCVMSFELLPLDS
Experiment: co-IP; HEK293FT co-transfected with BRCA1 WT or variant and BARD1-V5; 2 mg lysate protein incubated 90 min at 4 °C with V5 antibody coupled to Dynabeads Protein G; non-denaturing elution; BRCA1 in the IP detected by anti-BRCA1 blot, normalised to the anti-V5 signal, % of WT
Conditions: partners not purified

B1: mCherry-tagged wild type (WT) full-length human BRCA1 protein (natural protein, UniProt P38398 1-1863, looked up)
chain: MDLSALRVEEVQNVINAMQKILECPICLELIKEPVSTKCDHIFCKFCMLKLLNQKKGPSQCPLCKNDITKRSLQESTRFSQLVEELLKIICAFQLDTGLEYANSYNFAKKENNSPEHLKDEVSIIQSMGYRNRAKRLLQSEPENPSLQETSLSVQLSNLGTVRTLRTKQRIQPQKTSVYIELGSDSSEDTVNKATYCSVGDQELLQITPQGTRDEISLDSAKKAACEFSETDVTNTEHHQPSNNDLNTTEKRAAERHPEKYQGSSVSNLHVEPCGTNTHASSLQHENSSLLLTKDRMNVEKAEFCNKSKQPGLARSQHNRWAGSKETCNDRRTPSTEKKVDLNADPLCERKEWNKQKLPCSENPRDTEDVPWITLNSSIQKVNEWFSRSDELLGSDDSHDGESESNAKVADVLDVLNEVDEYSGSSEKIDLLASDPHEALICKSERVHSKSVESNIEDKIFGKTYRKKASLPNLSHVTENLIIGAFVTEPQIIQERPLTNKLKRKRRPTSGLHPEDFIKKADLAVQKTPEMINQGTNQTEQNGQVMNITNSGHENKTKGDSIQNEKNPNPIESLEKESAFKTKAEPISSSISNMELELNIHNSKAPKKNRLRRKSSTRHIHALELVVSRNLSPPNCTELQIDSCSSSEEIKKKKYNQMPVRHSRNLQLMEGKEPATGAKKSNKPNEQTSKRHDSDTFPELKLTNAPGSFTKCSNTSELKEFVNPSLPREEKEEKLETVKVSNNAEDPKDLMLSGERVLQTERSVESSSISLVPGTDYGTQESISLLEVSTLGKAKTEPNKCVSQCAAFENPKGLIHGCSKDNRNDTEGFKYPLGHEVNHSRETSIEMEESELDAQYLQNTFKVSKRQSFAPFSNPGNAEEECATFSAHSGSLKKQSPKVTFECEQKEENQGKNESNIKPVQTVNITAGFPVVGQKDKPVDNAKCSIKGGSRFCLSSQFRGNETGLITPNKHGLLQNPYRIPPLFPIKSFVKTKCKKNLLEENFEEHSMSPEREMGNENIPSTVSTISRNNIRENVFKEASSSNINEVGSSTNEVGSSINEIGSSDENIQAELGRNRGPKLNAMLRLGVLQPEVYKQSLPGSNCKHPEIKKQEYEEVVQTVNTDFSPYLISDNLEQPMGSSHASQVCSETPDDLLDDGEIKEDTSFAENDIKESSAVFSKSVQKGELSRSPSPFTHTHLAQGYRRGAKKLESSEENLSSEDEELPCFQHLLFGKVNNIPSQSTRHSTVATECLSKNTEENLLSLKNSLNDCSNQVILAKASQEHHLSEETKCSASLFSSQCSELEDLTANTNTQDPFLIGSSKQMRHQSESQGVGLSDKELVSDDEERGTGLEENNQEEQSMDSNLGEAASGCESETSVSEDCSGLSSQSDILTTQQRDTMQHNLIKLQQEMAELEAVLEQHGSQPSNSYPSIISDSSALEDLRNPEQSTSEKAVLTSQKSSEYPISQNPEGLSADKFEVSADSSTSKNKEPGVERSSPSKCPSLDDRWYMHSCSGSLQNRNYPSQEELIKVVDVEEQQLEESGPHDLTETSYLPRQDLEGTPYLESGISLFSDDPESDPSEDRAPESARVGNIPSSTSALKVPQLKVAESAQSPAAAHTTDTAGYNAMEESVSREKPELTASTERVNKRMSMVVSGLTPEEFMLVYKFARKHHITLTNLITEETTHVVMKTDAEFVCERTLKYFLGIAGGKWVVSYFWVTQSIKERKMLNEHDFEVRGDVVNGRNHQGPKRARESQDRKIFRGLEICCYGPFTNMPTDQLEWMVQLCGASVVKELSSFTLGTGVHPIVVVQPDAWTEDNGFHAIGQMCEAPVVTREWVLDSVALYQCQELDTYLIPQIPHSHY
notes: BRCA1, human, full-length, wild type; also called BRCA1 WT; mCherry-BRCA1; source: HEK293FT, transiently co-transfected, in lysate
Co-IP BARD1 (% of WT): 100 % of WT

B2: BRCA1 p.Cys39Tyr (full-length, mCherry-tagged; pathogenic control variant, RING domain) (natural protein, human, UniProt P38398 1-1863, looked up)
chain: MDLSALRVEEVQNVINAMQKILECPICLELIKEPVSTKYDHIFCKFCMLKLLNQKKGPSQCPLCKNDITKRSLQESTRFSQLVEELLKIICAFQLDTGLEYANSYNFAKKENNSPEHLKDEVSIIQSMGYRNRAKRLLQSEPENPSLQETSLSVQLSNLGTVRTLRTKQRIQPQKTSVYIELGSDSSEDTVNKATYCSVGDQELLQITPQGTRDEISLDSAKKAACEFSETDVTNTEHHQPSNNDLNTTEKRAAERHPEKYQGSSVSNLHVEPCGTNTHASSLQHENSSLLLTKDRMNVEKAEFCNKSKQPGLARSQHNRWAGSKETCNDRRTPSTEKKVDLNADPLCERKEWNKQKLPCSENPRDTEDVPWITLNSSIQKVNEWFSRSDELLGSDDSHDGESESNAKVADVLDVLNEVDEYSGSSEKIDLLASDPHEALICKSERVHSKSVESNIEDKIFGKTYRKKASLPNLSHVTENLIIGAFVTEPQIIQERPLTNKLKRKRRPTSGLHPEDFIKKADLAVQKTPEMINQGTNQTEQNGQVMNITNSGHENKTKGDSIQNEKNPNPIESLEKESAFKTKAEPISSSISNMELELNIHNSKAPKKNRLRRKSSTRHIHALELVVSRNLSPPNCTELQIDSCSSSEEIKKKKYNQMPVRHSRNLQLMEGKEPATGAKKSNKPNEQTSKRHDSDTFPELKLTNAPGSFTKCSNTSELKEFVNPSLPREEKEEKLETVKVSNNAEDPKDLMLSGERVLQTERSVESSSISLVPGTDYGTQESISLLEVSTLGKAKTEPNKCVSQCAAFENPKGLIHGCSKDNRNDTEGFKYPLGHEVNHSRETSIEMEESELDAQYLQNTFKVSKRQSFAPFSNPGNAEEECATFSAHSGSLKKQSPKVTFECEQKEENQGKNESNIKPVQTVNITAGFPVVGQKDKPVDNAKCSIKGGSRFCLSSQFRGNETGLITPNKHGLLQNPYRIPPLFPIKSFVKTKCKKNLLEENFEEHSMSPEREMGNENIPSTVSTISRNNIRENVFKEASSSNINEVGSSTNEVGSSINEIGSSDENIQAELGRNRGPKLNAMLRLGVLQPEVYKQSLPGSNCKHPEIKKQEYEEVVQTVNTDFSPYLISDNLEQPMGSSHASQVCSETPDDLLDDGEIKEDTSFAENDIKESSAVFSKSVQKGELSRSPSPFTHTHLAQGYRRGAKKLESSEENLSSEDEELPCFQHLLFGKVNNIPSQSTRHSTVATECLSKNTEENLLSLKNSLNDCSNQVILAKASQEHHLSEETKCSASLFSSQCSELEDLTANTNTQDPFLIGSSKQMRHQSESQGVGLSDKELVSDDEERGTGLEENNQEEQSMDSNLGEAASGCESETSVSEDCSGLSSQSDILTTQQRDTMQHNLIKLQQEMAELEAVLEQHGSQPSNSYPSIISDSSALEDLRNPEQSTSEKAVLTSQKSSEYPISQNPEGLSADKFEVSADSSTSKNKEPGVERSSPSKCPSLDDRWYMHSCSGSLQNRNYPSQEELIKVVDVEEQQLEESGPHDLTETSYLPRQDLEGTPYLESGISLFSDDPESDPSEDRAPESARVGNIPSSTSALKVPQLKVAESAQSPAAAHTTDTAGYNAMEESVSREKPELTASTERVNKRMSMVVSGLTPEEFMLVYKFARKHHITLTNLITEETTHVVMKTDAEFVCERTLKYFLGIAGGKWVVSYFWVTQSIKERKMLNEHDFEVRGDVVNGRNHQGPKRARESQDRKIFRGLEICCYGPFTNMPTDQLEWMVQLCGASVVKELSSFTLGTGVHPIVVVQPDAWTEDNGFHAIGQMCEAPVVTREWVLDSVALYQCQELDTYLIPQIPHSHY
notes: BRCA1, human, full-length, pathogenic control missense variant in the RING domain, introduced in the WT plasmid; Made by site-directed mutagenesis of the plasmid of m1; all other places and c.116G > A say p.Cys39Tyr; also called c.116G > A; source: HEK293FT, transiently co-transfected, in lysate
Co-IP BARD1 (% of WT): 8 % of WT

B3: BRCA1 p.Lys45Gln (full-length, mCherry-tagged; benign control variant, RING domain) (natural protein, human, UniProt P38398 1-1863, looked up)
chain: MDLSALRVEEVQNVINAMQKILECPICLELIKEPVSTKCDHIFCQFCMLKLLNQKKGPSQCPLCKNDITKRSLQESTRFSQLVEELLKIICAFQLDTGLEYANSYNFAKKENNSPEHLKDEVSIIQSMGYRNRAKRLLQSEPENPSLQETSLSVQLSNLGTVRTLRTKQRIQPQKTSVYIELGSDSSEDTVNKATYCSVGDQELLQITPQGTRDEISLDSAKKAACEFSETDVTNTEHHQPSNNDLNTTEKRAAERHPEKYQGSSVSNLHVEPCGTNTHASSLQHENSSLLLTKDRMNVEKAEFCNKSKQPGLARSQHNRWAGSKETCNDRRTPSTEKKVDLNADPLCERKEWNKQKLPCSENPRDTEDVPWITLNSSIQKVNEWFSRSDELLGSDDSHDGESESNAKVADVLDVLNEVDEYSGSSEKIDLLASDPHEALICKSERVHSKSVESNIEDKIFGKTYRKKASLPNLSHVTENLIIGAFVTEPQIIQERPLTNKLKRKRRPTSGLHPEDFIKKADLAVQKTPEMINQGTNQTEQNGQVMNITNSGHENKTKGDSIQNEKNPNPIESLEKESAFKTKAEPISSSISNMELELNIHNSKAPKKNRLRRKSSTRHIHALELVVSRNLSPPNCTELQIDSCSSSEEIKKKKYNQMPVRHSRNLQLMEGKEPATGAKKSNKPNEQTSKRHDSDTFPELKLTNAPGSFTKCSNTSELKEFVNPSLPREEKEEKLETVKVSNNAEDPKDLMLSGERVLQTERSVESSSISLVPGTDYGTQESISLLEVSTLGKAKTEPNKCVSQCAAFENPKGLIHGCSKDNRNDTEGFKYPLGHEVNHSRETSIEMEESELDAQYLQNTFKVSKRQSFAPFSNPGNAEEECATFSAHSGSLKKQSPKVTFECEQKEENQGKNESNIKPVQTVNITAGFPVVGQKDKPVDNAKCSIKGGSRFCLSSQFRGNETGLITPNKHGLLQNPYRIPPLFPIKSFVKTKCKKNLLEENFEEHSMSPEREMGNENIPSTVSTISRNNIRENVFKEASSSNINEVGSSTNEVGSSINEIGSSDENIQAELGRNRGPKLNAMLRLGVLQPEVYKQSLPGSNCKHPEIKKQEYEEVVQTVNTDFSPYLISDNLEQPMGSSHASQVCSETPDDLLDDGEIKEDTSFAENDIKESSAVFSKSVQKGELSRSPSPFTHTHLAQGYRRGAKKLESSEENLSSEDEELPCFQHLLFGKVNNIPSQSTRHSTVATECLSKNTEENLLSLKNSLNDCSNQVILAKASQEHHLSEETKCSASLFSSQCSELEDLTANTNTQDPFLIGSSKQMRHQSESQGVGLSDKELVSDDEERGTGLEENNQEEQSMDSNLGEAASGCESETSVSEDCSGLSSQSDILTTQQRDTMQHNLIKLQQEMAELEAVLEQHGSQPSNSYPSIISDSSALEDLRNPEQSTSEKAVLTSQKSSEYPISQNPEGLSADKFEVSADSSTSKNKEPGVERSSPSKCPSLDDRWYMHSCSGSLQNRNYPSQEELIKVVDVEEQQLEESGPHDLTETSYLPRQDLEGTPYLESGISLFSDDPESDPSEDRAPESARVGNIPSSTSALKVPQLKVAESAQSPAAAHTTDTAGYNAMEESVSREKPELTASTERVNKRMSMVVSGLTPEEFMLVYKFARKHHITLTNLITEETTHVVMKTDAEFVCERTLKYFLGIAGGKWVVSYFWVTQSIKERKMLNEHDFEVRGDVVNGRNHQGPKRARESQDRKIFRGLEICCYGPFTNMPTDQLEWMVQLCGASVVKELSSFTLGTGVHPIVVVQPDAWTEDNGFHAIGQMCEAPVVTREWVLDSVALYQCQELDTYLIPQIPHSHY
notes: BRCA1, human, full-length, benign control missense variant in the RING domain, introduced in the WT plasmid; Made by site-directed mutagenesis of the plasmid of m1; also called c.133A > C; source: HEK293FT, transiently co-transfected, in lysate
Co-IP BARD1 (% of WT): 76 % of WT
